Assay results published in US20230312753A1 (IMMUNORIZON, published 2023).

T1: NKG2D on cells (UniProt P26718 1-216, limits assumed)
T1 construct: whole, on cells
T1 sequence (looked up): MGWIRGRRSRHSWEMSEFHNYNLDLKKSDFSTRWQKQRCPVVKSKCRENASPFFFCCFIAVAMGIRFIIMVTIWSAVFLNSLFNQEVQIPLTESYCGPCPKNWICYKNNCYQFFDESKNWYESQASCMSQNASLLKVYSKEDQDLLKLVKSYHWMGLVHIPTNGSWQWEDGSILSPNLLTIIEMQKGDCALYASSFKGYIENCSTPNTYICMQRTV

T2: NKG2D-ECD-hFc (human, UniProt P26718 73-216)
T2 construct: extracellular domain; Lot 20200413002, 'provided by CP'; also called hNKG2D-ECD-hFc; not shown: human Fc (hFc)
T2 sequence (looked up): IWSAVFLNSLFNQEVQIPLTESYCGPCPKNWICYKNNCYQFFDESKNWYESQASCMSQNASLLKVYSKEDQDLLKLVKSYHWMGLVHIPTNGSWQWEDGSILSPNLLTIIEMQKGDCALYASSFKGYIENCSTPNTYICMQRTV


Legend:
NKG2A-CD94-ECD-hFc [1] = target: T3, NKG2A-CD94-ECD-hFc (human, UniProt P26715 94-233; Q13241 32-179, limits assumed); experiment: ELISA on coated NKG2A-CD94-ECD-hFc (FIG. 43D)
T3 construct: extracellular domain; Lot 20200724002, 'provided by CP'; the two-chain layout here is only the reading of the name; also called human NKG2A (recombinant); NKG2A antigen; not shown: human Fc (hFc)
T3 sequence (P26715 94-233 limits assumed, chain 1 of 2): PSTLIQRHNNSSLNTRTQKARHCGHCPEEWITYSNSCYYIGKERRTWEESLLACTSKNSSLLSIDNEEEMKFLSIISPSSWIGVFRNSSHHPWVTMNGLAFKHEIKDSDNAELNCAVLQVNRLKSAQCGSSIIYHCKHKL
T3 sequence (Q13241 32-179 limits assumed, chain 2 of 2): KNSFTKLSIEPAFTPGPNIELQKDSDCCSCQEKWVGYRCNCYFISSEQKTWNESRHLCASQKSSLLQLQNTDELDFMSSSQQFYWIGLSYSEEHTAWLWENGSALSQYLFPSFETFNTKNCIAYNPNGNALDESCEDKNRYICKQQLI
Experimental: (§1) Methods: ELISA binding of Tribody/ProTribody antibody constructs to antigens: Dilute target protein (hCD3epsilon-His (cat # 10977-H08S, supplier Sino Biological); h5T4-His (cat# 19845-H08H, supplier Sino Biological); NKG2A-CD94-ECD-hFc, Lot:20200724002, provided by CP; or NKG2D-ECD-hFc, Lot: 20200413002, provided by CP) into PBS with final concentration of 0.01 µg/mL for hCD3epsilon-His, 0.3 µg/mL for h5T4-His, 1 µg/mL for NKG2A-CD94-ECD-hFc and 0.7 µg/mL for hNKG2D-ECD-hFc respectively and coat 100 µL/well on ELISA plate (cat: 9018, supplier Corning) respectively. Incubate O/N, 4° C. The plates were blocked with 250 µL 1% BSA in PBST for 1 hr at 37° C.Wash 4 times with PBST. All the washes are done using Biotek (Elx 405). All the Tribody set antibodies were diluted to 400 nM and make 4-fold serially dilutions (12 points, including 0 point). Add 100 µL/well diluted antibody constructs solution to plate, incubate for 1 hr at 37° C.Wash 4 times with PBST. Add 100 µL/well anti-human kappa light chain-HRP (1:10000), incubate for 0.5 hr at 37° C. Wash 4 times with PBST. 100 µL/well of TMB substrate was added and incubated at room temperature for 5 min. 100 µL/well of 1N HCl to terminate reaction. Plates were read using ELISA plate reader at 450 nm wavelength (instrunet SpectraMax M5e). Data Analysis was performed using Graphpad prism 5 software by using nonlinear regression (curve fit): log (agonist) vs. response, agonist is antibody concentration (nM) and response is OD value.

[2] = target: T4, NKG2A/CD94 on CHO cells (CHOK1-NKG2A-CD94) (human, UniProt P26715 1-233; Q13241 1-179, limits assumed); experiment: FACS on CHO cells over-expressing human NKG2A (FIG. 45F)
T4 construct: whole, on cells; also called CHO cells over-expressing NKG2A/CD94; CHO cell line over expressing ectopic NKG2A
T4 sequence (P26715 whole entry, chain 1 of 2): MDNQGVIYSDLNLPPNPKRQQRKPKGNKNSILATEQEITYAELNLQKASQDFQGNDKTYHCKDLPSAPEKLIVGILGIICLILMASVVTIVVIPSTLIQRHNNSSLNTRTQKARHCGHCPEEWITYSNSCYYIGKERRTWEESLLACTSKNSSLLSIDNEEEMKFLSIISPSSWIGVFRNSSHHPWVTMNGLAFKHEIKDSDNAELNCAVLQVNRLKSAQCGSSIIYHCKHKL
T4 sequence (Q13241 whole entry, chain 2 of 2): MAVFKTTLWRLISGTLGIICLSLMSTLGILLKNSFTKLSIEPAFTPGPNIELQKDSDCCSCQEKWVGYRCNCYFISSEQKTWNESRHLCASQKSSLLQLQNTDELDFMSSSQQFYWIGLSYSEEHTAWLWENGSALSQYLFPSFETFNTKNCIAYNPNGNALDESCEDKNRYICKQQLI
Experimental: (§2) Then wash the cells 3 times with 170 µL FACS buffer. Re-suspend the cells at 100 µL/well with secondary antibody (goat anti-human Ig Fab-FITC, Cat # 2085-02, Southern biotech) with 1:400 dilution and incubate the plate for 30 min at 4° C. in dark. Centrifuge the plate at 2000 rpm, 4° C. for 5 min and discard supernatant. Then wash the cells 3 times with FACS buffer and analyze the sample with FACS verse. The fluorescence intensity of the staining was measured using flow cytometer (BD, FACSVerse). The geometric mean fluorescence intensity (GMFI; median fluorescence intensity (MFI)) of set antibodies staining was calculated (BD FACSuite software). Dose-response curves were generated and EC50s for thetrispecific variants binding were calculated using GraphPad Prism software.
Results: The expressed trispecific constructs were analyzed for their binding to cells expressing endogenous CD3ε, 5T4 and NKG2A/NKG2D. […] (FIG. 45F).

NKG2A-CD94-ECD-hFc [3] = target: T3, NKG2A-CD94-ECD-hFc; experiment: ELISA on coated NKG2A-CD94-ECD-hFc (FIG. 43D), reference IM-1062
Experimental: as §1, with “Data Analysis was performed using Graphpad prism 5 software by using nonlinear regression (curve fit): log (agonist) vs. response, agonist is antibody concentration (nM) and response is OD value.” left out

[4] = target: T4, NKG2A/CD94 on CHO cells …; experiment: FACS on CHO cells over-expressing human NKG2A (FIG. 45F), reference IM-1062
Experimental: as §2, with “Suspension cultured cells was harvested directly, and adherent cell were digested using TrypLE Express Enzyme (cat: 12604-013, supplier Life technologies). Centrifuge at 1000 rpm for 5 min and discard the supernatant. Cells are suspended at a concentration of 2×10⁶/mL in FACS buffer (2% FBS in PBS) and add 100 µL/well of cell suspension to the plate (cat #3799, supplier Corning). Centrifuging the plates at 2000 rpm for 5 min and discard the supernatant. Re-suspend the cells in 100 µL/well of Tribody set antibodies (400 nM start, 4-fold dilution, 8 point including 0 point) and incubate the plate for 60 min at 4° C. Centrifuge the plate at 2000 rpm, 4° C. for 5 min and discard supernatant. Then” for “Then”, “Then wash the cells 3 times with FACS buffer and analyze the sample with FACS verse.” left out

NKG2D on cells = target: T1, NKG2D on cells; experiment: FACS, data not shown
NKG2D-ECD-hFc = target: T2, NKG2D-ECD-hFc; experiment: ELISA, data not shown
Experimental: as §1, with “Data Analysis was performed using Graphpad prism 5 software by using nonlinear regression (curve fit): log (agonist) vs. response, agonist is antibody concentration (nM) and response is OD value.” left out

Binder | EC50 (NKG2A-CD94-ECD-hFc [1]) [nM] | EC50 [2] [nM] | fold improved binding affinity against IM-1062 (NKG2A-CD94-ECD-hFc [3]) [fold] | fold improved binding affinity against IM-1062 [4] [fold] | binding result (NKG2D on cells) | binding result (NKG2D-ECD-hFc)
IM-1272 bi-NKG2A scFv Tribody (other, Tribody with anti-CD3 Fab, anti-5T4 scFv and two anti-NKG2A scFv in tandem) heavy: GGSGGSEVQLVESGGGLVQPGGSLRLSCAASGFTFNTYAMNWVRQAPGKGLEWVARIRSKYNNYATYYADSVKDRFTISRDDSKNTLYLQMNSLRAEDTAVYYCVRHGNFGNSYVSWFAYWGQGTMVTVSSASTKGPSVFPLAPSSKSTSGGTAALGCLVKDYFPEPVTVSWNSGALTSGVHTFPAVLQSSGLYSLSSVVTVPSSSLGTQTYICNVNHKPSNTKVDKRVEPKSCPPCGGGGSDIQMTQSPSSLSASVGDRVTITCRASENIYSYLAWYQQKPGKAPKLLIYNAKTLAEGVPSRFSGSGSGTDFTLTISSLQPEDFATYYCQHHYGTPRTFGGGTKVEIKGGGGSGGGGSGGGGSQVQLVQSGAEVKKPGASVKVSCKASGYTFTSYWMNWVRQAPGQGLEWMGRIDPYDSETHYAQKLQGRVTMTTDTSTSTAYMELRSLRSDDTAVYYCARGGYDFDVGTLYWFFDVWGQGTTVTVSSGGGGSDIQMTQSPSSLSASVGDRVTITCRASENIYSYLAWYQQKPGKAPKLLIYNAKTLAEGVPSRFSGSGSGTDFTLTISSLQPEDFATYYCQHHYGTPRTFGGGTKVEIKGGGGSGGGGSGGGGSQVQLVQSGAEVKKPGASVKVSCKASGYTFTSYWMNWVRQAPGQGLEWMGRIDPYDSETHYAQKLQGRVTMTTDTSTSTAYMELRSLRSDDTAVYYCARGGYDFDVGTLYWFFDVWGQGTTVTVSS light: GGSGGSQAVVTQEPSLTVSPGGTVTLTCRSSTGAVTTSNYANWVQQKPGQAPRGLIGGTNKRAPGTPARFSGSLLGGKAALTLSGVQPEDEAEYYCALWYSNLWVFGGGTKLTVLGQPKAAPSVTLFPPSSEELQANKATLVCLISDFYPGAVTVAWKADSSPVKAGVETTTPSKQSNNKYAASSYLSLTPEQWKSHRSYSCQVTHEGSTVEKTVAPTECPPCSGGGSDIQMTQSPSSLSASVGDRVTITCRASQGISNYLAWFQQKPGKAPKSLIYRANRLQSGVPSRFSGSGSGTDFTLTISSLQPEDVATYYCLQYDDFPWTFGQGTKLEIKGGGGSGGGGSGGGGSGGGGSQVQLVQSGAEVKKPGASVKVSCKASGYTFTSFWMHWVRQAPGQGLEWMGRIDPNRGGTEYNEKAKSRVTMTADKSTSTAYMELSSLRSEDTAVYYCAGGNPYYPMDYWGQGTTVTVSS | 0.2 | 0.4 | ~60 | ~80 |  | 
IM-1273 bi-NKG2A scFv Tribody, CD3 mutant variant (other, Two anti-NKG2A scFv in tandem, CD3 arm mutated; also called IM-1273 CD3 mutant variant) heavy: GGSGGSEVQLVESGGGLVQPGGSLRLSCAASGFTFNTYAMNWVRQAPGKGLEWVARIGSGGNGYATYYADSVKDRFTISRDDSKNTLYLQMNSLRAEDTAVYYCVRHGNFGASARSWFAYWGQGTMVTVSSASTKGPSVFPLAPSSKSTSGGTAALGCLVKDYFPEPVTVSWNSGALTSGVHTFPAVLQSSGLYSLSSVVTVPSSSLGTQTYICNVNHKPSNTKVDKRVEPKSCPPCGGGGSDIQMTQSPSSLSASVGDRVTITCRASENIYSYLAWYQQKPGKAPKLLIYNAKTLAEGVPSRFSGSGSGTDFTLTISSLQPEDFATYYCQHHYGTPRTFGGGTKVEIKGGGGSGGGGSGGGGSQVQLVQSGAEVKKPGASVKVSCKASGYTFTSYWMNWVRQAPGQGLEWMGRIDPYDSETHYAQKLQGRVTMTTDTSTSTAYMELRSLRSDDTAVYYCARGGYDFDVGTLYWFFDVWGQGTTVTVSSGGGGSDIQMTQSPSSLSASVGDRVTITCRASENIYSYLAWYQQKPGKAPKLLIYNAKTLAEGVPSRFSGSGSGTDFTLTISSLQPEDFATYYCQHHYGTPRTFGGGTKVEIKGGGGSGGGGSGGGGSQVQLVQSGAEVKKPGASVKVSCKASGYTFTSYWMNWVRQAPGQGLEWMGRIDPYDSETHYAQKLQGRVTMTTDTSTSTAYMELRSLRSDDTAVYYCARGGYDFDVGTLYWFFDVWGQGTTVTVSS light: GGSGGSQAVVTQEPSLTVSPGGTVTLTCRSSTGAVTRGNAANWVQQKPGQAPRGLIGGTNARAPGTPARFSGSLLGGKAALTLSGVQPEDEAEYYCALGYSGLWVFGGGTKLTVLGQPKAAPSVTLFPPSSEELQANKATLVCLISDFYPGAVTVAWKADSSPVKAGVETTTPSKQSNNKYAASSYLSLTPEQWKSHRSYSCQVTHEGSTVEKTVAPTECPPCSGGGSDIQMTQSPSSLSASVGDRVTITCRASQGISNYLAWFQQKPGKAPKSLIYRANRLQSGVPSRFSGSGSGTDFTLTISSLQPEDVATYYCLQYDDFPWTFGQGTKLEIKGGGGSGGGGSGGGGSGGGGSQVQLVQSGAEVKKPGASVKVSCKASGYTFTSFWMHWVRQAPGQGLEWMGRIDPNRGGTEYNEKAKSRVTMTADKSTSTAYMELSSLRSEDTAVYYCAGGNPYYPMDYWGQGTTVTVSS | 0.1 | 0.2 | ~60 | ~80 |  | 
IM-1091 Tribody, NKG2D mutant variant (other, CD3/5T4/NKG2D Tribody with mutated anti-NKG2D arm) heavy: GGSGGSEVQLVESGGGLVQPGGSLRLSCAASGFTFNTYAMNWVRQAPGKGLEWVARIRSKYNNYATYYADSVKDRFTISRDDSKNTLYLQMNSLRAEDTAVYYCVRHGNFGNSYVSWFAYWGQGTMVTVSSASTKGPSVFPLAPSSKSTSGGTAALGCLVKDYFPEPVTVSWNSGALTSGVHTFPAVLQSSGLYSLSSVVTVPSSSLGTQTYICNVNHKPSNTKVDKRVEPKSCPPCGGGGSQSALTQPASVSGSPGQSITISCSGSSSNIGNNAVNWYQQLPGKAPKLLIYADDLLPSGVSDRFSGSKSGTSAFLAISGLQSEDEADYYCAAWDDSLNGPVFGGGTKLTVLGGGGSGGGGSGGGGSGGGGSQVQLVESGGGLVKPGGSLRLSCAASGFTFSSYGMHWVRQAPGKGLEWVAFIRYDGSNKYYADSVKGRFTISRDNSKNTLYLQMNSLRAEDTAVYYCAKDAGEGDGTYFDYWGQGTTVTVSS light: GGSGGSQAVVTQEPSLTVSPGGTVTLTCRSSTGAVTTSNYANWVQQKPGQAPRGLIGGTNKRAPGTPARFSGSLLGGKAALTLSGVQPEDEAEYYCALWYSNLWVFGGGTKLTVLGQPKAAPSVTLFPPSSEELQANKATLVCLISDFYPGAVTVAWKADSSPVKAGVETTTPSKQSNNKYAASSYLSLTPEQWKSHRSYSCQVTHEGSTVEKTVAPTECPPCSGGGSDIQMTQSPSSLSASVGDRVTITCRASQGISNYLAWFQQKPGKAPKSLIYRANRLQSGVPSRFSGSGSGTDFTLTISSLQPEDVATYYCLQYDDFPWTFGQGTKLEIKGGGGSGGGGSGGGGSGGGGSQVQLVQSGAEVKKPGASVKVSCKASGYTFTSFWMHWVRQAPGQGLEWMGRIDPNRGGTEYNEKAKSRVTMTADKSTSTAYMELSSLRSEDTAVYYCAGGNPYYPMDYWGQGTTVTVSS |  |  |  |  | no binding | no binding
